The chains are these.
B2: Brk SH3 domain (displayed on phage) (other)
chain: KYVGLWDFKSRTDEELSFRAGDVFHVARKEEQWWWATLLDEAGGAVAQGYVPHNYLAER
notes: also called SH3 domain of Brk

One experiment relates to HCC1954 cells. In words: Palbociclib inhibitor treatment, viable cell count IC50. Format: cell-based. To be noted: Homo sapiens; HCC1954 cells (Rb+). As for the experimental part: (§1) Cells were seeded on six well plates in duplicate, 5.0×10^4 per well. 24 hours post seeding, one well for each plate was treated with trypsin and counted using the Biorad Automated cell counter. 48 hours post seeding, another well was treated with trypsin and counted and the rest of the wells were treated with Palbociclib (SelleckChem) at 50 nM, 100 nM, 200 nM and 400 nM. DMSO was used as a negative control. Cells were counted again 24 and 48 h post treatment. The IC50 values were determined by normalizing the number of viable cells treated with different concentrations of Palbociclib to the number of viable cells treated with DMSO for each cell line 48 hours post treatment. The number of viable cells treated with DMSO was considered 100%. The log of the viability values was obtained and the data was fitted to a nonlinear regression curve, which was used to generate the IC50 values using Graphpad Prism software.

A further experiment concerns MCF7 cells. Described as above. The following applies: Homo sapiens. Format: cell-based. The method, then: as §1
For another experiment, the system named is MDA MB231 cells. Described as above. Type of experiment: cell-based. To be noted: Homo sapiens, MDA-MB-231. The method, then: as §1
In experiment [1] the test system is MCF7-Wt Brk expressing cells. In words: Palbociclib (PD) resistance of Brk-overexpressing cells, IC50. Format: cell-based. The following applies: Homo sapiens. The method, then:
as §1
Generation of the WT-Brk, KM-Brk, and YF-Brk has been described (Palka-Hamblin H. L. et al., […] J. Cell Sc. 123: 236-45). Amphotropic retroviruses were generated by transfection using Lipofectamine 2000 (Life Technologies 11668-019) of HEK 293 cells with pAmpho envelope and pBabe or pTRE3G tetracycline inducible constructs. Following viral infection of MCF7 cells, stable integrants were isolated by puromycin selection. […]

The next experiment concerns p27 pY88 in MCF7 cells. In words: Dual pY/p27 IHC assay on cell blocks. Type of experiment: cell-based. Set-up: key to pY staining intensity: 0: no pY staining; 1: weak pY staining; 2: moderate pY staining; 3: strong pY staining. To be noted: MCF7 cells treated with 400 nM Palbociclib, 48 h.
The subject of experiment [2] is ER/PR+, Her2− breast cancer cell lines. Description: ALT (alone or with Palbociclib) in breast cancer cell lines. Type of experiment: cell-based. From the text: To block pY in breast cancer cell lines, we used a small peptide ALT, which contains a portion of Brk's SH3 domain. ALT binds to p27, blocks Brk's association and ability to phosphorylate p27, inhibiting cdk4 and increasing p27's ability to inhibit cdk2. We generated Tetracycline inducible cell lines that expressed ALT and/or engineered a lipid-based nanoparticle delivery vehicle (NP-ALT), permitting us to test ALT as a first generation therapeutic. ALT was also used with Palbociclib to determine if combination therapy reduced drug resistance. pY inhibition comes with a built in biomarker for efficacy and the identification of responsive cell lines and/or future patients. We developed a dual IHC assay for p27 and pY, which we used to analyze both a breast cancer cell line panel previously stratified for Palbociclib sensitivity as well as paraffin-embedded, archival human tumor samples.

Experiment [3] concerns the target T1, recombinantly produced His-tagged p27 (full-length p27) (human, UniProt P46527 1-198).
T1 construct: also called p27Kip1; His-p27; not shown: C-terminal histidine tag
In words: phage-ELISA, SH3 phage on immobilised His-p27 (multivalent phage). The method, then: (§2) Phage supernatants were generated and binding of SH3-phages to recombinantly produced His-tagged-p27 or GST-PxxP-peptides were analyzed as described (Asbach B. et al., (2012) PLoS One 6: e38540).

The target in experiment [4] is T2, Abl SH3 domain (displayed on phage) (UniProt P00519 61-121, limits assumed).
T2 construct: domain: SH3
T2 sequence (P00519 61-121 limits assumed): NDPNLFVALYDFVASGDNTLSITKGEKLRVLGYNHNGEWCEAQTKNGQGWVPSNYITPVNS
Description: phage-ELISA on immobilised GST-K2.
Text: (§3) (FIG. 1A) p27 sequence highlighting the proline tracts of the three putative SH3 domain recruitment sites (PxxP): K1 (90-96), K2 (114-117) and K3 (188-195) (SEQ ID NO: 1). Phage-ELISA-analysis of SFK SH3 interactions with p27 (FIG. 1B) or p27's PxxP motifs (FIG. 1C). Data shown is the mean of three independent experiments±standard deviation after normalization and subtraction of the background binding to GST.
as §2
Background: An ELISA detects its analyte on a solid surface through an enzyme-linked reagent.

The target in experiment [5] is B2. In words: phage-ELISA on immobilised GST-K2.
Text: as §3, §2

Experiment [6] has as its target T3, Yes SH3 domain (displayed on phage) (UniProt P07947 91-152, limits assumed).
T3 construct: domain: SH3
Description: phage-ELISA on immobilised GST-K2.
Text: as §3, §2

Setting [7] is: ER/PR+, Her2− breast cancer cell lines.

Some results are limits rather than exact numbers.

T1 sequence (P46527 whole entry): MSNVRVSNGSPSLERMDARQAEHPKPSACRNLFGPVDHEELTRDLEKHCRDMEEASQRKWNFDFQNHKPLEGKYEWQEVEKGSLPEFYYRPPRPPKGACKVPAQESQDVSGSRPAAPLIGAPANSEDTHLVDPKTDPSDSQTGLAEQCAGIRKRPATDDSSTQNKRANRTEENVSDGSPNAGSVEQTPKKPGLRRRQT
T3 sequence (P07947 91-152 limits assumed): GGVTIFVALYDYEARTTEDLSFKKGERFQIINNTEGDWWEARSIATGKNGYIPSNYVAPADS
Description for p27 pY88 in MCF7 cells: 1×10^12 cells were grown in tissue culture, spun down and fixed in 10% formalin, embedded in paraffin, and then analyzed in the dual pY/p27 IHC assay as described. MCF7 cells were treated with 400 nM Palbociclib for 48 h. before cell block preparation. […] On day 1, slides are labeled with a pencil and baked in an oven at 65° C. for 30 minutes and immediately transferred from the oven to a coplin jar containing Xylene. Slides are rinsed in Xylene 4× for 3 minutes each at room temperature followed by a graded alcohol wash at 100%-95%-75% ethanol 3 times, 3 min each at R.T. Slides were then hydrated by incubation in H2O once for 3 min. After drying, a hydrophobic barrier was created around the tissue using a PAP pen. Endogenous peroxide was blocked by incubating the slides with Peroxide block for 30 min at room temp. The slides were washed with TBS-0.1% Tween 20 3 times for 3 minutes each followed by incubation in 1×PBS for 3 min. After an incubation with a with protein block for 1 h at R.T, P27 [MUT] antibody diluted 1:200 in the DAKO antibody diluent was added to the slides for an overnight incubation at 4° C. On day 2, a 1× solution of antigen retrieval was prepared from 10× stock and it was equilibrated at 100° C. in the water bath. […]

What is called IC50 is the concentration that gives 50% inhibition. Take `CC(=O)c1c(C)c2cnc(Nc3ccc(N4CCNCC4)cn3)nc2n(C2CCCC2)c1=O` [Palbociclib]: the half-inhibitory concentration (IC50) was 1 µM with HCC1954 cells, 0.2 µM in the experiment with MCF7 cells, 0.4 µM with MDA MB231 cells and roughly 0.6 µM in experiment [1]. The “pY staining, % of cells stained” value in the experiment with p27 pY88 in MCF7 cells is listed as 0%. The pY staining intensity in the experiment on p27 pY88 in MCF7 cells (scale 0-3) stood at 0.

B1: ALT: small peptide ALT, which contains a portion of Brk's SH3 domain; alternatively-spliced form of Brk (SEQ ID NO: 12) (protein)
chain: MVSRDQAHLGPKYVGLWDFKSRTDEELSFRAGDVFHVARKEEQWWWATLLDEAGGAVAQGYVPHNYLAERETVESEPAGHAGCAALQDLAACRGPAAPERGGVLPQPARACELPQGPEPVPRPAAGRALPEARA
modifications: Alt-Brk
Turning to B1, in [2] (setting [7]), the cdk2 activity result is on record as “blocked”, the cdk4 activity result was “blocked”, the pY entry is “blocked” and the proliferation entry is listed as “blocked”. Also, in experiment [2] (breast cancer cell lines), the duration of arrest was greater than 10 days.
As a reminder, the Kd is the constant that tells how readily two partners part at equilibrium. As to B2, the Kd in [3] stood at 0.25 µM.

B3: GST-K2 (GST-tagged p27 PxxP peptide K2) (peptide)
chain: DVSGSRPAAPLIGAPA
notes: also called K2 site; not shown: N-terminal GST tag from the pGEX-KG expression vector
Take B3: the binding result in [4], in experiment [5] and in experiment [6] was “no binding” each time.

For the origin of these results see patent publication US20190369104A1, “P27 TYROSINE PHOSPHORYLATION AS A MARKER OF CDK4 ACTIVITY AND METHODS OF USE THEREOF” (THE RESEARCH FOUNDATION FOR THE STATE UNIVERSITY OF NEW YORK, priority 2016, published 2019).
